Data from article PMC5026590.

Key:
[1] = molecular target: RyR2-S2814D (CaMKII phosphomimetic), knock-in mouse (mouse (endogenous in ventricular myocytes)) (UniProt E9Q401); experiment: FRET or BRET
[2] = molecular target: RyR2-S2814A (non-phosphorylatable), knock-in mouse (mouse (endogenous in ventricular myocytes)) (UniProt E9Q401); experiment: FRET or BRET

| Kd [2] [nM] | Kd [1] [nM] | Substance | fold faster binding (wash-in) vs. S2814A myocytes [1] [fold] |
| --- | --- | --- | --- |
| – | – | fluorescent DPc10 peptide (F-DPc10; RyR2 residues 2460-2495) (from UniProt P30957 2460-2495) | 2 |
| 20 | 72 | fluorescent calmodulin (F-CaM) (from UniProt P0DP23 1-149) (natural protein) | – |
